Reference: publication PMC10121170 (Science Advances, 2023)
Changes are numbered by the printed parent chain. Each block holds one molecule with its values, some of them ahead of it. No end group written: not given here.

Key:
[1] = molecular target: human AURKA_(123–403), kinase domain of Aurora kinase A, wild type (human) (UniProt O14965); test: ITC
[2] = molecular target: T1, AURKA region (AURKA_(123–403)C290,393A) of CEP192-AURKA_(chimera) (human, UniProt O14965 123-403, C290,393A | C290,393A); test: crystal structure
T1 sequence: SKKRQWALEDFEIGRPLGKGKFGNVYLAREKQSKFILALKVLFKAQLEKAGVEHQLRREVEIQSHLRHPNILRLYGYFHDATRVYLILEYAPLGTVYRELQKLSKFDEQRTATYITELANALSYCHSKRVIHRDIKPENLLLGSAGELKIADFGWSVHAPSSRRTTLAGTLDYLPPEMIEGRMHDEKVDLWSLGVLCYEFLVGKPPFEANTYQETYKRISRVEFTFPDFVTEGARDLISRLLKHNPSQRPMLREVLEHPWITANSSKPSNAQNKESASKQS

AURKA_(123–403) W128A = molecular target: T2, AURKA_(123–403) W128A (human, UniProt O14965 123-403, W128A); test: fluorescence polarisation
T2 sequence: T1 sequence with W6A, A168C, A271C

SEC-MALS = molecular target: the molecule itself; test: SEC-MALS

Molecule: N-terminal MBP-tagged AURKA-BD of human CEP192 residues 440 to 631 (from UniProt Q8TEP8 440-631) (domain or fragment)
- Kd [1]: 1200 nM
- stoichiometry N [1]: 1

B3: CEP192-AURKA_(chimera): CEP192_(506–527) fused to AURKA_(123–403)C290,393A without linker residues (other)
chain: EDFRSGSEAFDLIAQDEEEFNKSKKRQWALEDFEIGRPLGKGKFGNVYLAREKQSKFILALKVLFKAQLEKAGVEHQLRREVEIQSHLRHPNILRLYGYFHDATRVYLILEYAPLGTVYRELQKLSKFDEQRTATYITELANALSYCHSKRVIHRDIKPENLLLGSAGELKIADFGWSVHAPSSRRTTLAGTLDYLPPEMIEGRMHDEKVDLWSLGVLCYEFLVGKPPFEANTYQETYKRISRVEFTFPDFVTEGARDLISRLLKHNPSQRPMLREVLEHPWITANSSKPSNAQNKESASKQS
- stoichiometry N (SEC-MALS): 3

The next lines start with the values.

- binding result [2]: binds
B1: CEP192 region (residues 506–527) of CEP192-AURKA_(chimera) (domain or fragment)
chain: EDFRSGSEAFDLIAQDEEEFNK

- binding result (AURKA_(123–403) W128A): binds
B2: FITC-labeled CEP192_(506–536) peptide (peptide)
peptide: EDFRSGSEAFDLIAQDEEEFNKEHQFIQEEN
modifications: also: FITC label, position not given here
